Among the data in paper PMC7846606 are stoichiometry N values, retold here.

The assay addresses PRC2:EZH1 (EZH1, EED, SUZ12, RBAP48, AEBP2 and JARID2) (UniProt Q92800). Nature of the assay: SEC-MALS; TSKgel G4000SWxl, 20 mM Tris-HCl pH 7.5, 300 mM NaCl, 1 mM DTT, 0.5 ml/min; complexes at 1.25 mg/ml, 30 μl injected. On the technique in general: Size exclusion chromatography separates by hydrodynamic size, large species first.

For the substance “PRC2:EZH1 (EZH1, EED, SUZ12, RBAP48, AEBP2 and JARID2) (from UniProt Q92800 1-747; Q15022 1-739; O75530 1-441; Q09028 1-425; Q6ZN18 209-503; Q92833 1-1246) (complex)”, the stoichiometry N was 2.

As a reminder, the stoichiometry N is a count of units in the complex or per binding partner.
